Reference: article PMC7980463 (Proceedings of the National Academy of Sciences of the …, 2021)

Legend:
crystal structure = biological target: the molecule itself; experiment: crystal structure
MsGyrB47 (D348A) = biological target: T1, MsGyrB47 (D348A) (M. smegmatis, UniProt A0QNE0 1-427, D348A); experiment: cell-based or functional assay
T1 sequence: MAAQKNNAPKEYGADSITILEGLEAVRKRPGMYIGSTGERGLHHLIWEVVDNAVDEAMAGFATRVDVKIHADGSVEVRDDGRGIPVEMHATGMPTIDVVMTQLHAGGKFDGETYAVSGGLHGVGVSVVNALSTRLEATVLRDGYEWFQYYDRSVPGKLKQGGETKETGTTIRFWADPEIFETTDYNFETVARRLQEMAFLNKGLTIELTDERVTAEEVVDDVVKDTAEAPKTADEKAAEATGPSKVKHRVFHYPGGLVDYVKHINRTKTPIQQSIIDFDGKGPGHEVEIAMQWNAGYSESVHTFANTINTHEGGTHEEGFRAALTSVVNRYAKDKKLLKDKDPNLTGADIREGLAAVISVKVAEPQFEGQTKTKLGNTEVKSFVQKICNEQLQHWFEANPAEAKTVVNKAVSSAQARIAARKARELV

Row | Binder | stoichiometry N (crystal structure) | stimulation of the ATPase activity by MsMfpA, compared with wild-type MsGyrB47 (MsGyrB47 (D348A)) [fold decrease]
1 | MsGyrB47, the ATPase (N-terminal) domain of M. smegmatis GyrB (domain or fragment) MAAQKNNAPKEYGADSITILEGLEAVRKRPGMYIGSTGERGLHHLIWEVVDNAVDEAMAGFATRVDVKIHADGSVEVRDDGRGIPVEMHATGMPTIDVVMTQLHAGGKFDGETYAVSGGLHGVGVSVVNALSTRLEATVLRDGYEWFQYYDRSVPGKLKQGGETKETGTTIRFWADPEIFETTDYNFETVARRLQEMAFLNKGLTIELTDERVTAEEVVDDVVKDTAEAPKTADEKAAEATGPSKVKHRVFHYPGGLVDYVKHINRTKTPIQQSIIDFDGKGPGHEVEIAMQWNAGYSESVHTFANTINTHEGGTHEEGFRAALTSVVNRYAKDKKLLKDKDPNLTGDDIREGLAAVISVKVAEPQFEGQTKTKLGNTEVKSFVQKICNEQLQHWFEANPAEAKTVVNKAVSSAQARIAARKARELV | 2 | 
2 | Mycobacterium smegmatis MfpA (natural protein, M. smegmatis) MRIGANGDETVWADEEFAGRDFRDEDLSRIRTERVVFTECDFSGVDLSESEHHGSAFRNCTFRRSTIWHSTFTNCSLLGSVFTECRIRPVTFVECDFTLAVLGGCDLRAVDLSDCRLREVSLVGADLRKAVLRRADLTGSRVQDARLEEADLRGTRVDPTFWTTAKVRGAKIDIEQALAYAAAHGLAVHGG |  | ~2
